Patent US20040106545A1 (MCGILL UNIVERSITY, published 2004)
Positions of bridges follow the written chain, without caps; N, C: chain ends.

T1: chick N-cadherin expressed on transfected 3T3 cells (chick, UniProt P10288 165-912)
T1 sequence (looked up): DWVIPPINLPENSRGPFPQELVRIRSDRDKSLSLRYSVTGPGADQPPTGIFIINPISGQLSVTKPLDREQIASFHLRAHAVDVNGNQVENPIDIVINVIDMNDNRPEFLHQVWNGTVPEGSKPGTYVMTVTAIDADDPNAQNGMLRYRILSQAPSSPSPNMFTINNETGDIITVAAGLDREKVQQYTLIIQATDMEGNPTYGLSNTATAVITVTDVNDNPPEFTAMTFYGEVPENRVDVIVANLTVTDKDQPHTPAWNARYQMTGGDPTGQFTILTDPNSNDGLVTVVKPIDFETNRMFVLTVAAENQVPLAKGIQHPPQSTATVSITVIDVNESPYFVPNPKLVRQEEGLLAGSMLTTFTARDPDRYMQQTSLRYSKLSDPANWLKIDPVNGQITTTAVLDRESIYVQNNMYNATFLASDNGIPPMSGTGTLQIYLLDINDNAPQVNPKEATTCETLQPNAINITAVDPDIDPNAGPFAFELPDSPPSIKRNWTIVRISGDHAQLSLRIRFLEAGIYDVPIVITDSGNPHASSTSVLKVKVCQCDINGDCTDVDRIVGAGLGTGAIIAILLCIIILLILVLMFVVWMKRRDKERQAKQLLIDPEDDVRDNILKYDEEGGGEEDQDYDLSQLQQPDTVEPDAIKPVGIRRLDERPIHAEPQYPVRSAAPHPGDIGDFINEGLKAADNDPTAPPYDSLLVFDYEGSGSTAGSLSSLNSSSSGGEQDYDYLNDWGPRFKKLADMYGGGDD

B1: N-Ac-CSHGVSSC-NH2 (peptide)
peptide: Ac-CSHGVSSC-NH2
modifications: disulfide 1-8
SMILES: CC(=O)N[C@H]1CSSC[C@@H](C(N)=O)NC(=O)[C@H](CO)NC(=O)[C@H](CO)NC(=O)[C@H](C(C)C)NC(=O)CNC(=O)[C@H](Cc2c[nH]cn2)NC(=O)[C@H](CO)NC1=O
B2: N-Ac-CSHAVSSC-NH2 (peptide)
peptide: Ac-CSHAVSSC-NH2
modifications: disulfide 1-8
SMILES: CC(=O)N[C@H]1CSSC[C@@H](C(N)=O)NC(=O)[C@H](CO)NC(=O)[C@H](CO)NC(=O)[C@H](C(C)C)NC(=O)[C@H](C)NC(=O)[C@H](Cc2c[nH]cn2)NC(=O)[C@H](CO)NC1=O
B3: N-Ac-CSHAVSC-NH2 (peptide)
peptide: Ac-CSHAVSC-NH2
modifications: disulfide 1-7
SMILES: CC(=O)N[C@H]1CSSC[C@@H](C(N)=O)NC(=O)[C@H](CO)NC(=O)[C@H](C(C)C)NC(=O)[C@H](C)NC(=O)[C@H](Cc2c[nH]cn2)NC(=O)[C@H](CO)NC1=O
B4: N-Ac-CSHGVC-NH2 (peptide)
peptide: Ac-CSHGVC-NH2
modifications: disulfide 1-6
SMILES: CC(=O)N[C@H]1CSSC[C@@H](C(N)=O)NC(=O)[C@H](C(C)C)NC(=O)CNC(=O)[C@H](Cc2c[nH]cn2)NC(=O)[C@H](CO)NC1=O
B5: N-Ac-CSHGVSC-NH2 (peptide)
peptide: Ac-CSHGVSC-NH2
modifications: disulfide 1-7
SMILES: CC(=O)N[C@H]1CSSC[C@@H](C(N)=O)NC(=O)[C@H](CO)NC(=O)[C@H](C(C)C)NC(=O)CNC(=O)[C@H](Cc2c[nH]cn2)NC(=O)[C@H](CO)NC1=O
B6: N-Ac-S-CHAVC-S-NH2 (peptide)
peptide: Ac-SCHAVCS-NH2
modifications: disulfide 2-6
SMILES: CC(=O)N[C@@H](CO)C(=O)N[C@H]1CSSC[C@@H](C(=O)N[C@@H](CO)C(N)=O)NC(=O)[C@H](C(C)C)NC(=O)[C@H](C)NC(=O)[C@H](Cc2c[nH]cn2)NC1=O

What follows are binders tested against T1, chick N-cadherin expressed on … (assay: cell-based or functional assay).
For Ac-CRAHGVDC-NH2 (disulfide 1-8 (inferred)) [N-Ac-CRAHGVDC-NH2], the “% inhibition of N-cadherin dependent neurite outgrowth (peptide 250 µg/mL)” value (“% inhibition … (peptide 250 µg/mL)” below) was -8%. In the case of B1, the “% inhibition … (peptide 250 µg/mL)” value is reported as -5.6%. With Ac-CHAVSSC-NH2 (disulfide 1-7 (inferred)) [N-Ac-CHAVSSC-NH2] the “% inhibition … (peptide 250 µg/mL)” value was 34.4%. In the case of Ac-CRAHAVDC-NH2 (disulfide 1-8 (inferred)) [N-Ac-CRAHAVDC-NH2], the “% inhibition … (peptide 250 µg/mL)” value is reported as -5%. For Ac-CAHGVC-NH2 (disulfide 1-6 (inferred)) [N-Ac-CAHGVC-NH2], the “% inhibition … (peptide 250 µg/mL)” value was -6.4%. For Ac-CAHAVDIC-NH2 (disulfide 1-8 (inferred)) [N-Ac-CAHAVDIC-NH2], the “% inhibition … (peptide 250 µg/mL)” value was 89.4%. Ac-CHGVDC-NH2 (disulfide 1-6 (inferred)) [N-Ac-CHGVDC-NH2] was tested, and the “% inhibition … (peptide 250 µg/mL)” value was -8.6%. In the case of Ac-CHGVSSC-NH2 (disulfide 1-7 (inferred)) [N-Ac-CHGVSSC-NH2], the “% inhibition … (peptide 250 µg/mL)” value is reported as 14.8%. Ac-CLRAHGVDC-NH2 (disulfide 1-9 (inferred)) [N-Ac-CLRAHGVDC-NH2] was tested, and the “% inhibition … (peptide 250 µg/mL)” value was -6.8%. With Ac-CLRAHAVC-NH2 (disulfide 1-8 (inferred)) [N-Ac-CLRAHAVC-NH2] the “% inhibition … (peptide 250 µg/mL)” value was 9.9%. For Ac-CAHAVDC-NH2 (disulfide 1-7 (inferred)) [N-Ac-CAHAVDC-NH2], the “% inhibition … (peptide 250 µg/mL)” value was 13.3%. H-CHGVC-NH2 (disulfide 1-5 (inferred)) [H-CHGVC-NH2] was tested, and the “% inhibition … (peptide 250 µg/mL)” value was 7.8%. B2 was tested, and the “% inhibition … (peptide 250 µg/mL)” value was -12.6%. In the case of B3, the “% inhibition … (peptide 250 µg/mL)” value is reported as 8.3%. Ac-CHAVSC-NH2 (disulfide 1-6 (inferred)) [N-Ac-CHAVSC-NH2] was tested, and the “% inhibition … (peptide 250 µg/mL)” value was -2.5%. With Ac-CAHAVC-NH2 (disulfide 1-6 (inferred)) [N-Ac-CAHAVC-NH2] the “% inhibition … (peptide 250 µg/mL)” value was 58.5%. With H-CAHGVDC-NH2 (disulfide 1-7 (inferred)) [H-CAHGVDC-NH2] the “% inhibition … (peptide 250 µg/mL)” value was 5.7%. For Ac-CHGVSC-NH2 (disulfide 1-6 (inferred)) [N-Ac-CHGVSC-NH2], the “% inhibition … (peptide 250 µg/mL)” value was -6.7%. In the case of Ac-CLRAHAVDC-NH2 (disulfide 1-9 (inferred)) [N-Ac-CLRAHAVDC-NH2], the “% inhibition … (peptide 250 µg/mL)” value is reported as 76.3%. Ac-CAHGVDC-NH2 (disulfide 1-7 (inferred)) [N-Ac-CAHGVDC-NH2] was tested, and the “% inhibition … (peptide 250 µg/mL)” value was 4%. With H-CAHGVDIC-NH2 (disulfide 1-8 (inferred)) [H-CAHGVDIC-NH2] the “% inhibition … (peptide 250 µg/mL)” value was 7.2%. In the case of B4, the “% inhibition … (peptide 250 µg/mL)” value is reported as 12.5%. Ac-CLRAHGVC-NH2 (disulfide 1-8 (inferred)) [N-Ac-CLRAHGVC-NH2] was tested, and the “% inhibition … (peptide 250 µg/mL)” value was -0.5%. For B5, the “% inhibition … (peptide 250 µg/mL)” value was 10.8%. For Ac-CHGVC-NH2 (disulfide 1-5 (inferred)) [N-Ac-CHGVC-NH2], the “% inhibition … (peptide 250 µg/mL)” value was 4.8%. In the case of Ac-CAHGVDIC-NH2 (disulfide 1-8 (inferred)) [N-Ac-CAHGVDIC-NH2], the “% inhibition … (peptide 250 µg/mL)” value is reported as 4.8%.

Each binder was assayed against N-cadherin expressed on transfected 3T3 cells (Examples 2 and 21) (assay: cell-based or functional assay).
With Ac-CRAHGVDC-NH2 (disulfide 1-8 (inferred)) [N-Ac-CRAHGVDC-NH2] the “% Inhibition of neurite outgrowth, 250 µg/mL (rat neurons)” value (shortened to “% Inhibition … (rat neurons)”) was 0%. In the case of B1, the “% Inhibition … (rat neurons)” value is reported as 0%. With Ac-CHAVSSC-NH2 (disulfide 1-7 (inferred)) [N-Ac-CHAVSSC-NH2] the “% Inhibition … (rat neurons)” value was 0%. Ac-CRAHAVDC-NH2 (disulfide 1-8 (inferred)) [N-Ac-CRAHAVDC-NH2] was tested, and the “% Inhibition … (rat neurons)” value was 0%. With Ac-CAHGVC-NH2 (disulfide 1-6 (inferred)) [N-Ac-CAHGVC-NH2] the “% Inhibition … (rat neurons)” value was 0%. For Ac-KHGVD-NH2 (lactam 1-5 (inferred)) [N-Ac-KHGVD-NH2], the “% Inhibition … (rat neurons)” value was 0%. With Ac-CAHAVDIC-NH2 (disulfide 1-8 (inferred)) [N-Ac-CAHAVDIC-NH2] the “% Inhibition … (rat neurons)” value was 82%. With Ac-CHGVDC-NH2 (disulfide 1-6 (inferred)) [N-Ac-CHGVDC-NH2] the “% Inhibition … (rat neurons)” value was 0%. Ac-CHGVSSC-NH2 (disulfide 1-7 (inferred)) [N-Ac-CHGVSSC-NH2] was tested, and the “% Inhibition … (rat neurons)” value was 0%. In the case of Ac-CLRAHGVDC-NH2 (disulfide 1-9 (inferred)) [N-Ac-CLRAHGVDC-NH2], the “% Inhibition … (rat neurons)” value is reported as 0%. With H-KHAVD-NH2 (lactam 1-5 (inferred)) [H-KHAVD-NH2] the “% Inhibition … (rat neurons)” value was 0%. Ac-CLRAHAVC-NH2 (disulfide 1-8 (inferred)) [N-Ac-CLRAHAVC-NH2] was tested, and the “% Inhibition … (rat neurons)” value was 0%. H-CHGVC-NH2 (disulfide 1-5 (inferred)) [H-CHGVC-NH2] was tested, and the “% Inhibition … (rat neurons)” value was 0%. For B2, the “% Inhibition … (rat neurons)” value was 0%. For B3, the “% Inhibition … (rat neurons)” value was 0%. In the case of Ac-CHAVSC-NH2 (disulfide 1-6 (inferred)) [N-Ac-CHAVSC-NH2], the “% Inhibition … (rat neurons)” value is reported as 0%. H-KHGVD-NH2 (lactam 1-5 (inferred)) [H-KHGVD-NH2] was tested, and the “% Inhibition … (rat neurons)” value was 0%. With Ac-CAHAVC-NH2 (disulfide 1-6 (inferred)) [N-Ac-CAHAVC-NH2] the “% Inhibition … (rat neurons)” value was 51%. With H-CAHGVDC-NH2 (disulfide 1-7 (inferred)) [H-CAHGVDC-NH2] the “% Inhibition … (rat neurons)” value was 0%. Ac-CHGVSC-NH2 (disulfide 1-6 (inferred)) [N-Ac-CHGVSC-NH2] was tested, and the “% Inhibition … (rat neurons)” value was 0%. With Ac-CLRAHAVDC-NH2 (disulfide 1-9 (inferred)) [N-Ac-CLRAHAVDC-NH2] the “% Inhibition … (rat neurons)” value was 60%. In the case of Ac-KHAVD-NH2 (lactam 1-5 (inferred)) [N-Ac-KHAVD-NH2], the “% Inhibition … (rat neurons)” value is reported as 0%. In the case of H-CAHGVDIC-NH2 (disulfide 1-8 (inferred)) [H-CAHGVDIC-NH2], the “% Inhibition … (rat neurons)” value is reported as 0%. For B4, the “% Inhibition … (rat neurons)” value was 0%. For Ac-CLRAHGVC-NH2 (disulfide 1-8 (inferred)) [N-Ac-CLRAHGVC-NH2], the “% Inhibition … (rat neurons)” value was 0%. For B5, the “% Inhibition … (rat neurons)” value was 0%. With Ac-CHGVC-NH2 (disulfide 1-5 (inferred)) [N-Ac-CHGVC-NH2] the “% Inhibition … (rat neurons)” value was 0%. Ac-CAHGVDIC-NH2 (disulfide 1-8 (inferred)) [N-Ac-CAHGVDIC-NH2] was tested, and the “% Inhibition … (rat neurons)” value was 0%.

Target: T1, chick N-cadherin expressed on …
Test: cell-based or functional assay
Remark: another data set of the same source
With Ac-CHAVPC-NH2 (disulfide 1-6 (inferred)) [N-Ac-CHAVPC-NH2] the “% inhibition of neurite outgrowth (peptide 125 µg/mL)” value was 58% and the “EC50 for inhibition of neurite outgrowth” value was 185 µM. With Ac-CHAVDINGC-NH2 (disulfide 1-9 (inferred)) [N-Ac-CHAVDINGC-NH2] the “% inhibition of neurite outgrowth (peptide 125 µg/mL)” value was 1.5%.

Target: T1, chick N-cadherin expressed on …
Test: cell-based or functional assay
Remark: another data set of the same source
In the case of B6, the “Percent Inhibition of N-cadherin dependent neurite outgrowth (peptide 250 µg/ml)” value is reported as 15.7%.
